From publication PMC7235859, “Structural and Functional Peculiarities of α-Crystallin” (Biology, 2020)

Target: the molecule itself
Experiment: negative-stain electron microscopy; 0.2 mg/mL, incubated 30 min at 37 °C in 20 mM Tris-HCl pH 7.5, 100 mM NaCl, 1 mM EDTA; 1% uranyl acetate; preparations from cortex, from nucleus and from Sigma; 12–14 nm particles used for 3D reconstruction

B1: native α-crystallin from bovine eye lens (complex)
chain 1: MDIAIQHPWFKRTLGPFYPSRLFDQFFGEGLFEYDLLPFLSSTISPYYRQSLFRTVLDSGISEVRSDRDKFVIFLDVKHFSPEDLTVKVQEDFVEIHGKHNERQDDHGYISREFHRRYRLPSNVDQSALSCSLSADGMLTFSGPKIPSGVDAGHSERAIPVSREEKPSSAPSS
chain 2: MDIAIHHPWIRRPFFPFHSPSRLFDQFFGEHLLESDLFPASTSLSPFYLRPPSFLRAPSWIDTGLSEMRLEKDRFSVNLDVKHFSPEELKVKVLGDVIEVHGKHEERQDEHGFISREFHRKYRIPADVDPLAITSSLSSDGVLTVNGPRKQASGPERTIPITREEKPAVTAAPKK
notes: αA-crystallin (HSPB4), bovine, isolated from eye lens as part of native α-crystallin; αB-crystallin (HSPB5), bovine, isolated from eye lens as part of native α-crystallin; Hetero-oligomeric mixture of αA- and αB-crystallin that was not separated; The number of subunits and the αA:αB ratio were not measured here (3:1 and about 42 monomers are cited); also called natural α-crystallin; authentic …
B1: binds.
